System: MS2 coat protein
Assay: apparent KD of MS2 coat protein; designed switch direction (-1 OFF switch, 1 ON switch): -1; higher = weaker reporter binding
In short: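 Designed RNA switches sharing common flanks were transcribed on Illumina chips by stalled E. coli RNA polymerase. They were titrated with SNAP-549-labelled MS2 coat protein, from 0.7 or 1.5 nM doubling to 3 µM, in Tris-HCl pH 7.5 buffer with KCl, MgCl2, BSA, DTT, tRNA and Tween-20. Titrations ran without input, with 200 uM small-molecule ligand, or with an oligonucleotide input. The apparent KD of each design is the median over its clusters, after curve-fitting of normalised cluster fluorescence.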

[1] = input ligand: microRNA oligo, concentration not stated
[2] = Eterna round: R95, input ligand: microRNA oligo, concentration not stated
[3] = Eterna round: R95, input ligand: FMN 200 uM
[4] = Eterna round: R95, input ligand: none

Sequence	apparent KD of MS2 coat protein (input ligand: FMN 200 uM)	apparent KD of MS2 coat protein [1]	apparent KD of MS2 coat protein (input ligand: none)	apparent KD of MS2 coat protein [2]	also measured
UUAAAUCAUGUAGGAUAUGCGUGGAGAAACUAUGCAGAAGGACAUGAGGAUCACCCAUGUGCUUCCGUCUGAGAACAGACGGUA [Mat - Exclusion NG 1 - Mod of JL - D14] (Eterna round: R96, puzzle: Exclusion NG 1)	285 nM	43.2 nM	57.9 nM		
UUAAAUCAUGUAGGAUAUGCGUGGCGAAGCUAUGCAGAAGGACAUGAGGAUCACCCAUGUGCUUCCGUCUGAGUACAGACGGUA [Mat - Exclusion NG 1 - Mod of JL - D11] (Eterna round: R96, puzzle: Exclusion NG 1)	221 nM	106 nM	101 nM		
UUAAGGGACUGAGGAUAUACAUGAAUUAUUUUUGUAGAAGGCAGAUUGUUAGUUUAUUCACUAUACAUGAGGAUCACCCAUGUU [JR_ExcNG1_Sub020] (Eterna round: R96, puzzle: Exclusion NG 1)		18.3 nM			
UUAAUAUAUCAGGAUAUGAUUAUAUGUGUUAAAUCAGAAGGGAUAACAUGAGGAUCACCCAUGUUGUGGAGUGA [JR_Ex6_Sub033] (Eterna round: R97, puzzle: Exclusion 6)	303 nM		92.8 nM		
UUAAUAUAUGUAGGAUAUGCGUGGCGAAGCUAUGCAGAAGGACAUGAGGAUCACCCAUGUUCCAGCGUCCGCGUACGGAUGCAA [JL Eng1 1.21 mod 11] (Eterna round: R96, puzzle: Exclusion NG 1)	16 nM	12.3 nM	13.3 nM		
UUAAUUAAUUAAGCGCAAGAUCACAUGAGGAUCACCCAUGUAUAGGAUAUCAGCUCGUGUAGAGCUGAGAAGGAUACAUAGCGC [ExNG3/2-A3] (Eterna round: R96, puzzle: Exclusion NG 3)	1030 nM	184 nM	143 nM		
UUACCUAGUGUUAGGAUAUGCGACGGGUGACCGUUGCAGAAGGAACAUGAGGAUCACCCAUGUUUAAUAAAAUC [JL-BMX4-4.45 ViennaUCT mod] (Eterna round: R97, puzzle: Brourd's mod of Exclusion 4)	53.1 nM		12.6 nM		
UUACUCCUCGCUUGGUCACACAUGAGGAUCACCCAUGUGGGAUGCCAUGGCGUCUCAUCAAGCUUCUUUUGCUCGUG [Eternabot (Original) Solution 26] (Eterna round: R97, puzzle: Sensor, turn-off variant 1)	20.9 nM		23.8 nM		
UUAGUAUUGCAAGGAUAUGUUUAUGUUUAUUUUCCUCUUACAUGAGGAUCACCCAUGUUUAACUUACAGAAGGUGCUAUGAUUU [JR_ExcNG2_Sub032] (Eterna round: R96, puzzle: Exclusion NG 2)	1120 nM	477 nM	1030 nM		
UUAUACCUAGGAUAUACCUUUGGGUGUAGCCUAAUGUCUGGACAUGAGGAUCACCCAUGUAGAAGGAGGCGAAA [EX2 A.7] (Eterna round: R97, puzzle: Exclusion 2)	244 nM		78 nM		
UUAUAUAAUGUGAGGAUAUGCUGGUCGAGAGAUCAGCAGAAGGCACAUGAGGAUCACCCAUGUAGUAAAUUUUA [Mat - Exclusion 4 - JL Mod - D14] (puzzle: Brourd's mod of Exclusion 4)				19.8 nM	
UUAUAUAGUGUGAGGAUAUGCUGGUCCUUGGAUCAGCAGAAGGCACAUGAGGAUCACCCAUGUAGUUAAUUAUA [Mat - Exclusion 4 - JL Mod - D15] (puzzle: Brourd's mod of Exclusion 4)				30.1 nM	
UUAUCUACUGAGGAUAUUAUAUUACCCGACUGAUAAGAAGGCAGUACAUGAGGAUCACCCAUGUGGGUAGCCAU [Polaris11] (Eterna round: R97, puzzle: Exclusion 6)	23.2 nM		20.8 nM		
UUAUUAAGUGUGAGGAUAUGCUGGUCCUUGGAUCAGCAGAAGGCACAUGAGGAUCACCCAUGUACAUUAUUUUA [Mat - Exclusion 4 - JL Mod - D28] (puzzle: Brourd's mod of Exclusion 4)				31.6 nM	
UUAUUACAAGCAAGAUCCCACAUGAGGAUCACCCAUGUGCUCGUCUUAUAAGGUACAGUGACGAAAGUCACAGUACC [Sensor 3, v1 - 0] (Eterna round: R96, puzzle: Sensor v3, turn-off variant 1)	23.1 nM	369 nM	25.9 nM		
UUAUUACAAGCAAGAUCCCACAUGAGGAUCACCCAUGUGCUCGUCUUAUAAGGUACAGUGACGAAAGUCACAGUACC [Sensor 3, v1 - 0] (puzzle: Sensor v3, turn-off variant 1)				795 nM	apparent KD of MS2 coat protein [3]: 29.4 nM; apparent KD of MS2 coat protein [4]: 22.3 nM
UUAUUAUAUGUAGGAUAUGCAUAUUAUUAUUAUGCAGAAGGACAUGAGGAUCACCCAUGUAUAUUAUUGUUAUAUAUUAUAUAU [Title] (Eterna round: R96, puzzle: Exclusion NG 1)		21 nM			

Sequence	apparent KD of MS2 coat protein (input ligand: FMN 200 uM)	apparent KD of MS2 coat protein [1]	apparent KD of MS2 coat protein (input ligand: none)	apparent KD of MS2 coat protein [2]	also measured
UUAUUGUGAGGAUAUCCAAUAUAUGACAUGAGGAUCACCCAUGUUUCCACUCGUACCUCCGGAGAAGGCACUUAUA [Ex5 #47] (Eterna round: R97, puzzle: Exclusion 5)	28.6 nM		32.3 nM		
UUCACAUGGACAUAAGAUCACAUGAGGAUCACCCAUGUGAAUAACAAGCUUUUUGUUCGUCUUAUGUCCAAUAAUAU [Stov1/14-B3] (Eterna round: R97, puzzle: Sensor, turn-off variant 1)	13.9 nM		12.2 nM		
UUCAUGUGAGGAUAUAGUACUUCUUCUAUUAUUAUUGAGUACUAGAAGGCACAUGAGGAUCACCCAUGUAGUAC [Ex4 - 3 - 43] (Eterna round: R96, puzzle: Exclusion 4)	21.8 nM	22.1 nM	39.1 nM		
UUCAUGUGAGGAUAUAGUACUUCUUCUAUUAUUAUUGAGUACUAGAAGGCACAUGAGGAUCACCCAUGUAGUAC [Ex4 - 3 - 43] (puzzle: Exclusion 4)				39.1 nM	
UUCAUGUUAGGAUAUUCCGCUGCAGAGAAAGAGUGCAGAAUGAAGAAGGGACAUGAGGAUCACCCAUGUUCCAA [EX4 A.8] (Eterna round: R97, puzzle: Exclusion 4)	19.5 nM		15.5 nM		
UUCCAACGAGGAUAUCGAUGGUGGAACAUGAGGAUCACCCAUGUAUGAGAUAGUGUAGUUCGAGAAGGCGUUCAGU [JR_E5_Sub055] (puzzle: Exclusion 5)				41.9 nM	
UUCCCGCGCGUGAGGAUAUGCUGAUCCCAGGAUUAGCAGAAGGCACAUGAGGAUCACCCAUGUCCAACUUGUCU [LRO-BmodExc4-14- Bluer = mod of Colors by Tatyana Zabanova] (Eterna round: R97, puzzle: Brourd's mod of Exclusion 4)	38.5 nM		31.6 nM		
UUCCGACAUGAGGAUCACCCAUGUAAGGAUAUGCACUAGAGGGCAAACCCUCUUAACGGCAGAAGGUGCAGGGA [Qudile] (Eterna round: R97, puzzle: Exclusion 1)	115 nM		15 nM		
UUCCUCACUUCUUUGUCUCACAUGAGGAUCACCCAUGUAAUAUAGGAUAUGCUUAGUAUUUAUAUGCAGAAGGAUAUUAGUAUU [JR_ExcNG3_Sub084] (Eterna round: R96, puzzle: Exclusion NG 3)	157 nM	39.8 nM	55.5 nM		
UUCCUGUCAGGAUAUGACUAGAUGCACGUUAGUGUGUUUACUUAGAAGGGACAUGAGGAUCACCCAUGUAUUCC [Bring Us a Shrubbery-15] (puzzle: Exclusion 4)				25.1 nM	
UUCGUGCAGCUUUGCUGUACGCGUACAUGAGGAUCACCCAUGUAGGAUAUGGUAGGCUUUGCUUACUAGAAGGAUAUAGUGAUC [JL EXNG3 1.31] (Eterna round: R96, puzzle: Exclusion NG 3)		138 nM			
UUCGUGCUGCUUUGCUGUACGAGUACAUGAGGAUCACCCAUGUAGGAUAUGGUACGCUUUGCGUGCUAGAAGGAUAUGUGUUGC [salish99_ExNG3_r04_506] (Eterna round: R96, puzzle: Exclusion NG 3)	24.6 nM	16.9 nM	24 nM		
UUCUUACGAGGAUAUCGAUGGUGGAACAUGAGGAUCACCCAUGUAUGAGAUAUUGUAUUUCGAGAAGGCGUUCAGU [JR_E5_Sub058] (puzzle: Exclusion 5)				51.6 nM	
UUCUUUACACGAGGAUAUCAUACAUGAGGAUCACCCAUGUUGCUUUGUCUGUUUUUAUGUAUUAUUGAGAAGGCGUUUUUCUUU [JR_ExcNG2_Sub076] (Eterna round: R96, puzzle: Exclusion NG 2)	21.9 nM	19.7 nM	23.7 nM		
UUCUUUGUUGUGAGGAUAUCGUAUUCUUUUUGUUACGAGAAGGCACAUGAGGAUCACCCAUGUUUCUUGAUGUU [JR_BMOE4_Sub068] (puzzle: Brourd's mod of Exclusion 4)				16.7 nM	
UUGAAGUAAGGAUAUACAUGAGGAUCACCCAUGUGGAGGAAGGUGAUGGGAGUAGGUAGUAGAAGGUACGAGGA [JR_Exclu3_Sub063] (puzzle: Exclusion 3)				100 nM	apparent KD of MS2 coat protein [3]: 124 nM; apparent KD of MS2 coat protein [4]: 220 nM
UUGAGCAGACGGAGAUCCAACAUGAGGAUCACCCAUGUCUCAUAAGCUUUUUGUUCAUCUUAUUGUACCUUGGUGCU [Mat - Sensor v3 - turn-off var 1 - JL Mod - D23] (puzzle: Sensor v3, turn-off variant 1)				8.53 nM	apparent KD of MS2 coat protein [3]: 47 nM; apparent KD of MS2 coat protein [4]: 40.5 nM
